Results published in patent publication US20060165680A1.

What was measured:
[1] = target: TAG-72 expressed on the cell surface of Jurkat cells (human); assay: flow cytometry on Jurkat cells expressing cell-surface TAG-72, 1 ug antibody, FITC-conjugated mouse anti-human antibody
[2] = target: TAG-72 expressed on the cell surface of Jurkat cells (human); assay: flow cytometry on Jurkat cells expressing cell-surface TAG-72, antibody amount not given, FITC-conjugated mouse anti-human antibody
[3] = target: TAG-72 positive bovine submaxillary mucin (BSM) (bovine); assay: SPR (BIAcore X), control Fab over immobilised BSM, BSA reference

% Gated, marker M1 [1]	% Gated, marker M2 [1]	% Total, marker M1 [1]	% Total, marker M2 [1]	Mean, marker All [1]	Mean, marker M1 [1]	Mean, marker M2 [1]	Substance	koff [3]	also measured
27.2%	73%	12.2%	32.7%	41.6	5.92	54.8	cCC49 (antibody)		
							human immunoglobulin G (HuIgG) control (antibody)		% Gated, marker M1 [2]: 99.7%; % Gated, marker M2 [2]: 0.31%; % Total, marker M1 [2]: 92.1%; % Total, marker M2 [2]: 0.29%; Mean, marker All [2]: 3.54; Mean, marker M1 [2]: 3.49; Mean, marker M2 [2]: 20.5
70.8%	29.4%	60.6%	25.2%	18	4.36	50.9	HuCC49 (antibody)		
							Fab derived from murine CC49	0.000104 s⁻¹	
							Fab derived from human IgG	0.0138 s⁻¹	
